± gives the uncertainty stated by the source.
B1: Metastasis-associated protein MTA3, residues 265 to 317; numbered along this chain, Q9BTC8 (parent)
chain: RDEMEEWSASEASLFEEALEKYGKDFNDIRQDFLPWKSLTSIIEYYYMWKTTD

Variants of: B1
Experiment: abundance fitness (aPCA) (normalised: wild type 0, dead -1); higher = more abundant; growth selection in yeast, the domain comes from the species named
Details: Homo sapiens

RDEMEEWDASEASLFEEALEKYGKDFNDIRQDFLPWKSLTSIIEYYYMWKTTD [S8D] and RDEMEEWSASEASLFEEALEKYGKDFNDIRQDFLPWKSLTSIIEYYYMWKTWD [T52W] are within error of each other in abundance fitness: -0.587 ± 0.12 for the first, -0.521 ± 0.23 for the second.

Going from RDEMEEWSASEASLFEEAIEKYGKDFNDIRQDFLPWKSLTSIIEYYYMWKTTD [L19I] to RDEMEEWSASEASLFEEAREKYGKDFNDIRQDFLPWKSLTSIIEYYYMWKTTD [L19R], the abundance fitness falls from 0.027 ± 0.12 to -0.607 ± 0.13.

RDEMEPWSASEASLFEEALEKYGKDFNDIRQDFLPWKSLTSIIEYYYMWKTTD [E6P] and RDEMESWSASEASLFEEALEKYGKDFNDIRQDFLPWKSLTSIIEYYYMWKTTD [E6S] are within error of each other in abundance fitness: -0.384 ± 0.27 for the first, -0.289 ± 0.19 for the second.

Going from RDEMEEWSASEASLFGEALEKYGKDFNDIRQDFLPWKSLTSIIEYYYMWKTTD [E16G] to WDEMEEWSASEASLFEEALEKYGKDFNDIRQDFLPWKSLTSIIEYYYMWKTTD [R1W], the abundance fitness rises from -0.907 ± 0.13 to -0.044 ± 0.26.

Going from RDEMEEWSANEASLFEEALEKYGKDFNDIRQDFLPWKSLTSIIEYYYMWKTTD [S10N] to RDEMEEWSAIEASLFEEALEKYGKDFNDIRQDFLPWKSLTSIIEYYYMWKTTD [S10I], the abundance fitness falls from -0.005 ± 0.14 to -0.462 ± 0.2.

Going from RDEMEEWSAMEASLFEEALEKYGKDFNDIRQDFLPWKSLTSIIEYYYMWKTTD [S10M] to RDEMEEWSASEKSLFEEALEKYGKDFNDIRQDFLPWKSLTSIIEYYYMWKTTD [A12K], the abundance fitness rises from -0.152 ± 0.1 to 0.358 ± 0.077.

Compared with RDEMEEWSASETSLFEEALEKYGKDFNDIRQDFLPWKSLTSIIEYYYMWKTTD [A12T], RDEMEEWSASEASLFEPALEKYGKDFNDIRQDFLPWKSLTSIIEYYYMWKTTD [E17P] is lower in abundance fitness: -0.238 ± 0.085 for the first, -0.756 ± 0.082 for the second.

RDEMEEWSASEASLFEEALEKYGKDFNDIRQDFLPWKSLTSIIEYPYMWKTTD [Y46P] and RDEMEEWSASEASLFEEALEKYGKDFNDIRQDFLPWKSLTSIIEYEYMWKTTD [Y46E] are within error of each other in abundance fitness: -0.598 ± 0.14 for the first, -0.531 ± 0.12 for the second.

Going from RDEMEEWSASEASLFEEALEKYGKDFNDIRQDFLPWKSLTSIIEYHYMWKTTD [Y46H] to RDEMEEWSASEASLFEERLEKYGKDFNDIRQDFLPWKSLTSIIEYYYMWKTTD [A18R], the abundance fitness falls from -0.176 ± 0.35 to -0.913 ± 0.11.

RDEMEEWSASEASLFEEALEKCGKDFNDIRQDFLPWKSLTSIIEYYYMWKTTD [Y22C] and RDEMEEWSASEASLFEEALEKYGNDFNDIRQDFLPWKSLTSIIEYYYMWKTTD [K24N] are within error of each other in abundance fitness: 0.26 ± 0.091 for the first, 0.333 ± 0.17 for the second.

First: RDEMEEWSASEASLFEEALEKYGKYFNDIRQDFLPWKSLTSIIEYYYMWKTTD [D25Y]
Second: RDEMEEWSASEASLFEEALEKYGKKFNDIRQDFLPWKSLTSIIEYYYMWKTTD [D25K]
The abundance fitness of the first is lower: -0.392 ± 0.2 for the first, 0.375 ± 0.081 for the second.

First: RDEMEEWSASEASLFEEALEKYGKDFNDIRQDFLPWKSLTSHIEYYYMWKTTD [I42H]
Second: RDEMEEWSASEASLFEEALEKYGKDFNYIRQDFLPWKSLTSIIEYYYMWKTTD [D28Y]
The abundance fitness of the first is lower: -0.744 ± 0.14 for the first, 0.322 ± 0.22 for the second.

Compared with RDEMEEWSYSEASLFEEALEKYGKDFNDIRQDFLPWKSLTSIIEYYYMWKTTD [A9Y], RDEMEEWSASEASLSEEALEKYGKDFNDIRQDFLPWKSLTSIIEYYYMWKTTD [F15S] is higher in abundance fitness: -0.916 ± 0.17 for the first, -0.543 ± 0.089 for the second.

RDEMEEWSASEASLTEEALEKYGKDFNDIRQDFLPWKSLTSIIEYYYMWKTTD [F15T] and RDEMEEWSASEASLFEEALEKYGKDFLDIRQDFLPWKSLTSIIEYYYMWKTTD [N27L] are within error of each other in abundance fitness: -0.851 ± 0.14 for the first, -0.602 ± 0.22 for the second.

RDEMEEWSASEASLFEEALEKYGKDFNDIRQDFLPWKSLTSIIEYYYMWKTTR [D53R] and RDEMEEWSASEASLFEEALEKYGKDFNDIRQDFLPWKSLTSIIEYYYMWKTTY [D53Y] are within error of each other in abundance fitness: -0.164 ± 0.39 for the first, -0.543 ± 0.36 for the second.

RDEMDEWSASEASLFEEALEKYGKDFNDIRQDFLPWKSLTSIIEYYYMWKTTD [E5D] and RDEMEEWSASEASLFEEALETYGKDFNDIRQDFLPWKSLTSIIEYYYMWKTTD [K21T] are within error of each other in abundance fitness: -0.341 ± 0.37 for the first, -0.443 ± 0.12 for the second.

Compared with RDEMEEWSASEASLFEEALERYGKDFNDIRQDFLPWKSLTSIIEYYYMWKTTD [K21R], RDEMEEWSASEASLFEEALEKYWKDFNDIRQDFLPWKSLTSIIEYYYMWKTTD [G23W] is lower in abundance fitness: -0.381 ± 0.11 for the first, -0.868 ± 0.29 for the second.

RDEMEEWSASEASLFEEALEKYHKDFNDIRQDFLPWKSLTSIIEYYYMWKTTD [G23H] and RDEMEEWSASEASLFEEALEKYVKDFNDIRQDFLPWKSLTSIIEYYYMWKTTD [G23V] are within error of each other in abundance fitness: -0.784 ± 0.22 for the first, -0.888 ± 0.11 for the second.

First: RDEMEEWSASEASLFEEALEKYDKDFNDIRQDFLPWKSLTSIIEYYYMWKTTD [G23D]
Second: RDEMEEQSASEASLFEEALEKYGKDFNDIRQDFLPWKSLTSIIEYYYMWKTTD [W7Q]
The abundance fitness of the first is higher: -0.558 ± 0.19 for the first, -1.03 ± 0.25 for the second.

RDEMEERSASEASLFEEALEKYGKDFNDIRQDFLPWKSLTSIIEYYYMWKTTD [W7R] and RDEMEEKSASEASLFEEALEKYGKDFNDIRQDFLPWKSLTSIIEYYYMWKTTD [W7K] are within error of each other in abundance fitness: -0.715 ± 0.15 for the first, -0.549 ± 0.17 for the second.

RDEMEEWSASEASLFEEALEKYGKDFNDIRQDFLPWKSLTSIIEYYTMWKTTD [Y47T] and RDEMEEWSASEASLFEEALEKYGKDFNDIRQDFLPWKSLTSIIEYYNMWKTTD [Y47N] are within error of each other in abundance fitness: 0.398 ± 0.14 for the first, 0.053 ± 0.29 for the second.

Going from RDEMEEWSASEASLFEEALEKYGKDFNDIRQSFLPWKSLTSIIEYYYMWKTTD [D32S] to RDEMEEWSASEAMLFEEALEKYGKDFNDIRQDFLPWKSLTSIIEYYYMWKTTD [S13M], the abundance fitness falls from 1.09 ± 0.32 to 0.128 ± 0.093.

RDEMEEWSASEASLFEEALEKYGKDFNDIRQDFLPWKSLTSIIEYYYMDKTTD [W49D] and RDEMEEWSASEASLFEEALEKYGKDFNDIRQDFLPWKSLTSIIEYYYMWTTTD [K50T] are within error of each other in abundance fitness: -0.532 ± 0.36 for the first, -0.271 ± 0.08 for the second.

First: RDEMEEWSASAASLFEEALEKYGKDFNDIRQDFLPWKSLTSIIEYYYMWKTTD [E11A]
Second: RDEMEEWSASEASLFEEALEKYGKDFNDIRQDFLPWKSLGSIIEYYYMWKTTD [T40G]
The abundance fitness of the first is lower: -0.623 ± 0.092 for the first, -0.188 ± 0.15 for the second.

First: RDEMEEWSASEASLFEEALEKYGKDFNDIRQDFLPWKELTSIIEYYYMWKTTD [S38E]
Second: RDEMEEWSASEASLFEEALEKYGKDFNDIRQDFLPWKRLTSIIEYYYMWKTTD [S38R]
The abundance fitness of the first is higher: 0.047 ± 0.17 for the first, -0.749 ± 0.14 for the second.

Source: the Human Domainome abundance scans (Beltran et al. 2025)
